Tests used:
[1] = molecular target: protease domain of reduced human plasmin (Homo sapiens, UniProt P00747); assay: Immunoblotting of reduced human plasmin; type: binding
Description: FIGS. 1A-1D show binding specificity and avidity of Pi for human plasmin. […] Relative migration of molecular standards (kDa) is shown. […] Wells of a microtiter plate were coated with native (wild-type, WT) or various microplasmin loop mutants (5 ug/ml). After blocking, Pi, a polyclonal rabbit anti-plasmin (plasmin Ab) or a non-reactive mouse (anti-digoxin, control) antibody (1 ug/ml) were added to wells. The bound antibodies (Pi, control) were detected by a secondary anti-mouse peroxidase (1:10,000) and the plasmin antibodies were detected by anti-rabbit peroxidase antibody (1:5,000) followed by TMB substrate with monitoring at A405. […] Wells of microtiter plate were coated with human plasminogen (2 ug/ml). After blocking and washing, various concentrations of purified Pi (shown) were added for 1 h. After washing the amount of antibody bound was detected by a secondary anti-mouse antibody followed by TMB substrate with monitoring at A405 nm. Data shown the means±SE of triplicate observations, experiments repeated at least twice. The data were analyzed with Graphpad Prism, r=0.95.

Plasmin = Plasmin (Homo sapiens, UniProt P00747); assay: Velocity of S2251 substrate cleavage (Michaelis-Menten); type: biochemical; details: plasmin 100 nM, Pi 50 nM, S2251 0.1 to 4 mM
Description: FIGS. 2A-2D show comparative inhibition of plasmin activity by Pi EACA and a2AP. […] The percent residual activity of plasmin as a function of the log concentration of inhibitor is shown. […] Human plasmin (100 nM, Hematologic Technologies, Inc.) was mixed with or without Pi (50 nM) in the presence of the substrate S2251 (0.1 to 4 mM). The initial rate of substrate cleavage (6 min.) was monitored at A405. Data were plotted and analyzed using Michaelis-Menten kinetics by the Graphpad Prism Program. Means (duplicate observations) are shown and are representative of 4 separate experiments. […] The means of duplicate observations are shown. […] Plasmin (25 nM) was mixed with various concentrations (0-200 nM) of mouse Fab or chimeric Fab (cFab) and S2251 (0.5 mM) in TBS buffer pH 7.4. Plasmin activity was measured by the release of paranitroanilide product at A405 over time.
The effect of Pi on the velocity of substrate cleavage by human plasmin was examined. Human plasmin (100 nM, Hematologic Technologies, Inc.) was mixed with or without Pi (50 nM) in the presence of the substrate S2251 (0.1 to 4 mM). The initial rate of substrate cleavage (6 min.) was monitored at A405. Data were plotted and analyzed using Michaelis-Menten kinetics by the Graphpad Prism Program.

chymotrypsin = assay: Specificity of Pi binding (ELISA); details: plate coated 10 ug/ml
Description: (§1) FIGS. 3A-3D show binding and inhibitory specificity of Pi. […] The effect of various concentrations of Pi (0-2000 nM) on clots formed with human, baboon or African green monkey plasmas. Clot lysis was measured in microtiter plates after addition of urokinase as described in Methods.
(§2) Specificity of Pi binding. The binding of the Pi to different serine proteases was assessed by ELISA in 96-well plates coated with human plasminogen, mouse plasminogen, tPA, trypsin or chymotrypsin (10 ug/ml) and blocked with 1% BSA. After incubation and washing, Pi or control monoclonal antibody supernatants (anti-digoxin) were added to the wells for 1 h in triplicate. Then goat anti mouse antibody conjugated with HRP (1:5000, Sc-2005, Santa Cruz) was then added. The plate was washed after incubation for 1 h. TMB was added to the wells and absorbance at 370 nm was recorded.

human tPA = human tPA (Homo sapiens, UniProt P00750); assay: Specificity of Pi binding (ELISA); details: plate coated 10 ug/ml
Description: as §1, §2

mouse plasminogen = mouse plasminogen (Mus musculus, UniProt P20918); assay: Specificity of Pi binding (ELISA); details: plate coated 10 ug/ml
Description: as §1, §2

trypsin = assay: Specificity of Pi binding (ELISA); details: plate coated 10 ug/ml
Description: as §1, §2

[2] = tested on: human clot lysis initiated by r-tPA; assay: Clot lysis assay of Pi, MAb 340 and control MAb with r-tPA; type: biochemical; details: human plasma, MAb 20 ug, r-tPA 2 nm
Description: as §1
The comparative effects of Pi, MAb 340 and a control MAb (anti-digoxin) were examined in a clot lysis assay in microtiter plates. Human plasma (50 ul) was mixed with the MAbs (20 ug) in duplicate and then clotted with CaCl2 and thrombin, with or without recombinant (r)-tPA (2 nm). Clot dissolution at 37 deg. C. was monitored at 405 nm for 120 min. The time required to fully dissolve the clots during the 120 min. observation period was recorded.

human plasma clots = assay: Clot lysis assay of Pi IgG, Fab and chimeric Fab, urokinase; type: biochemical; details: 25 nM-400 nM, 30 min
Description: FIGS. 4A-4D show comparative inhibition of factor V cleavage and human clot fibrinolysis (dissolution) by Pi, EACA and a2AP. […] The relative migration of molecular weight standards is shown (kDa). […] Human plasma was clotted with CaCl2 (10 mM) and thrombin (1 U/ml) in the presence of trace amounts of 1251 fibrinogen for 1 h at 37 deg. C. After washing in 1 ml of TBS pH 7.4, tPA (5 nM) was added in the presence of various amounts of Pi (62.5 to 1000 nM), EACA (0.125 mM to 2 mM) or no inhibitor. After 2.5 h the amount of fibrinolysis was determined by measuring the amount of 125I-fibrin dissolved in the supernatant. Means of duplicate observations are shown. […] Clots were formed as above in the presence of human plasminogen (2 uM) and a2AP (1 uM) or Pi (1 uM) and various amounts of tPA (0-10 nM). Clot dissolution was monitored in duplicate over 2 h in microtiter plate wells at A405 nm. […] The amount of clot lysis was determined as described in Methods.
The effects of Pi IgG, Fab or chimeric Fab were also compared in a clot lysis assay in microtiter plates. […] C. was monitored at 405 nm. The percent clot dissolution at 30 min. was determined as the percent change in peak turbidity from baseline=100%×(peak absorbance−30 min. absorbance)/(peak absorbance−baseline absorbance).

Chain of protease domain of reduced human plasmin (P00747 581-810 limits assumed): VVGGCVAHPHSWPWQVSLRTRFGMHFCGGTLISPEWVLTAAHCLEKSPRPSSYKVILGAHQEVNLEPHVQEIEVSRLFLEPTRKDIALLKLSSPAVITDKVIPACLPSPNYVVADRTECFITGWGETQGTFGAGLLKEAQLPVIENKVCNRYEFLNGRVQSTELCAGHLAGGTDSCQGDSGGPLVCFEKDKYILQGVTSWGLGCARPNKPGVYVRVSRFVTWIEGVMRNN
Chain of Plasmin (P00747 97-580 limits assumed): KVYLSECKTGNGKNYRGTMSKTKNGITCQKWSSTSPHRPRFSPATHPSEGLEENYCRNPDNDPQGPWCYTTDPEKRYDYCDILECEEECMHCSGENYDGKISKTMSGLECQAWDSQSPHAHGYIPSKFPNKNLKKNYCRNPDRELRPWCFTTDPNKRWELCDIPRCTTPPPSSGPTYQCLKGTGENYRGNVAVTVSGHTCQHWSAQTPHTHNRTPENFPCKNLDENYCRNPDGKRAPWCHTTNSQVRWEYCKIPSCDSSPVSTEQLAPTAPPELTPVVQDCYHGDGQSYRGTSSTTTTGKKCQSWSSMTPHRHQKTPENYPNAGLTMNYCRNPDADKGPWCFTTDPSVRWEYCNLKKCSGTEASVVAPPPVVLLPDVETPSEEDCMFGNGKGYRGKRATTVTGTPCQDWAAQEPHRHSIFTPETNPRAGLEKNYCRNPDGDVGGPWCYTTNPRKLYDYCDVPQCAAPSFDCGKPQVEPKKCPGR
Chain of Plasmin (P00747 581-810 limits assumed): as the sequence (P00747 581-810 limits assumed) above
Chain of mouse plasminogen (P20918 20-812 limits assumed): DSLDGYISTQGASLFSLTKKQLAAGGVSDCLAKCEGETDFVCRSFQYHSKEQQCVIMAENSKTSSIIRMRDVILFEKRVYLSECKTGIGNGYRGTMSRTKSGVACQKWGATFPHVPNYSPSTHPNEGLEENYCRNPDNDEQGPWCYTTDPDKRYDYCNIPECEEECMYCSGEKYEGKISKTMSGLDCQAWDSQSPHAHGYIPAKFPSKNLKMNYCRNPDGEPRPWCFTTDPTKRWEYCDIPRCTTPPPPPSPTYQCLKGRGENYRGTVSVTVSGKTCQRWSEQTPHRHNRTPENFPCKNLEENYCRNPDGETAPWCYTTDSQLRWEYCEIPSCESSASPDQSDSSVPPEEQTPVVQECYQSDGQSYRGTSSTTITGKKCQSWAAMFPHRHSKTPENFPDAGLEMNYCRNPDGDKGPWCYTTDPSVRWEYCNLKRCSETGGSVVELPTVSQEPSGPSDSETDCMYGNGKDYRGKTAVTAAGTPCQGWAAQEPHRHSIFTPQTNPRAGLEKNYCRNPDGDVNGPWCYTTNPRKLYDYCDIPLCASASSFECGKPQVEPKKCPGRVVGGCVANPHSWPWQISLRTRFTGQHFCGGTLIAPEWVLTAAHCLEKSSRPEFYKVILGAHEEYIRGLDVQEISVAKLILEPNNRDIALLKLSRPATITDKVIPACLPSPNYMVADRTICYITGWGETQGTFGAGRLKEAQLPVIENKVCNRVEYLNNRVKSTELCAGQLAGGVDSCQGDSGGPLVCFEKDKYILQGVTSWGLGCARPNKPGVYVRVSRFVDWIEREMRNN
Chain of human tPA (P00750 36-562): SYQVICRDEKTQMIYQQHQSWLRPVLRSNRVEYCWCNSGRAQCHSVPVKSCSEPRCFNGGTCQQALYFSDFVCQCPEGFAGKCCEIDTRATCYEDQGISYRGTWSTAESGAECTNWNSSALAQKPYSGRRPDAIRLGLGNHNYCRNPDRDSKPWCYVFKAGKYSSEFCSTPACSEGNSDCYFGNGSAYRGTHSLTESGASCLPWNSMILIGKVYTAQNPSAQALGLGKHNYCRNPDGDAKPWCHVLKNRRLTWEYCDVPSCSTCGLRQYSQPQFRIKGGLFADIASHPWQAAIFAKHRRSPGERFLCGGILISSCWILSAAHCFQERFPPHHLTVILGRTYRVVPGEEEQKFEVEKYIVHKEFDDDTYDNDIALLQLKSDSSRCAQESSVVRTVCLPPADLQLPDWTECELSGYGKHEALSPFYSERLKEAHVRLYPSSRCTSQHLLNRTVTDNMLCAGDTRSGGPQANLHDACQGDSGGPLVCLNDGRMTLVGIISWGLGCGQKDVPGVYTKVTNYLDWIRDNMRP

B1: Pi: mouse monoclonal antibody plasmin inhibitor binding plasmin protease domain loops 4 and 5; LC SEQ ID NO:1, HC SEQ ID NO:4 (antibody)
heavy: EVKLLESGGGLVQPGGSLKLSCAASGFDFSRYWMSWVRQAPGKGLEWIGEINPDSSTINYTPSLKDKFIISRDNAKNSLYLQMSKVRSEDTALYYCASYCGYSYDALDCWGQGTSVTVSSAKTTPPSVYPLAPGSAAQTNSMVTLGCLVKGYFPEPVTVTWNSGSLSSGVHTFPAVLQSDLYTLSSSVTVPSSTWPSETVTCNVAHPASSTKVDKKIVPRDCGCKPCICTVPEVSSVFIFPPKPKDVLTITLTPKVTCVVVDISKDDPEVQFSWFVDDVEVHTAQTQPREEQFNSTFRSVSELPIMHQDWLNGKEFKCRVNSVAFPAPIEKTISKTKGRPKAPQVYTIPPPKEQMAKDKVSLTCMITDFFPEDITVEWQWNGQPAENYKNTQPIMDTDGSYFVYGKLNVQKSNWEAGNTFTCSVLHEGLHNHHTEKSLSHSPGK
light: DIQMTQSPSSLSASLGGKVSITCKASQDINKYISWYQHKPGKGPRLLIHYTSTLQPGIPSRFSGSGSGRDYSFSISNLEPEDIATYYCLQYDNLYTFGGGTKLEIKRADAAPTVSIFPPSSEQLTSGGASVVCFLNNFYPKDINVKWKIDGSERQNGVLNSWTDQDSKDSTYSMSSTLTLTKDEYERHNSYTCEATHKTSTSPIVKSFNWNEC
In the case of B1, the binding by immunoblotting [1] is reported as “bound specifically to the protease domain of plasmin”, the “effect on Vmax of plasmin cleavage of S2251” value (Plasmin) is reported as “reduced the Vmax of plasmin cleavage of S2251” and the “specific binding vs control anti-digoxin antibody” value (chymotrypsin) is reported as “no specific binding”. The “specific binding vs control anti-digoxin antibody” value (human tPA) was “no specific binding”, the “specific binding vs control anti-digoxin antibody” value (mouse plasminogen) was “no specific binding” and the “specific binding vs control anti-digoxin antibody” value (trypsin) was “no specific binding”. For the same molecule, the “clot dissolution during 120 min” value [2] was “did not significantly dissolve” and the “inhibition of clot lysis by Pi molecular forms” value (human plasma clots) was “effectively inhibited clot lysis”.

Source: patent publication US11066482B2, “Specific plasmin inactivation by anticatalytic antibody” (priority 2017, dated 2021)
